Reference: the Human Domainome abundance scans (Beltran et al. 2025)

B1: Far upstream element-binding protein 2, residues 142 to 214; numbered along this chain, Q92945 (parent)
chain: RTSMTEEYRVPDGMVGLIIGRGGEQINKIQQDSGCKVQISPDSGGLPERSVSLTGAPESVQKAKMMLDDIVSR

Variants of: B1
Test: abundance fitness (aPCA) (normalised: wild type 0, dead -1); higher = more abundant; growth selection in yeast, the domain comes from the species named
Details: Homo sapiens

Abundance fitness of substitutions, site by site:
R21: F -0.146; P 0.008; K 0.056; D 0.133; N 0.074; M -0.002; V -0.068; W -0.353; Y -0.148; T -0.004; S 0.02; G -0.043; Q -0.015; A 0.026; C -0.012; I -0.191; L 0.042; E 0.088
I26: A -0.394; E -0.685; W -0.215; S -0.693; D -0.549; G -0.641; N -0.852; P -0.639; R -0.533; C -0.524; Q -0.35; K -0.352; F -0.492; V -0.146; H -0.485; M -0.054; Y -0.769; T -0.451
G23: V -0.257; Q -0.126; K -0.177; A -0.149; P -0.314; W -0.32; L -0.169; R -0.11; D -0.187; S -0.178; T -0.27; N -0.241; F -0.3; C -0.212; M -0.141; Y -0.393
I19: L 0.008; A -0.096; F -0.098; W -0.144; P -0.35; M 0.096; Y 0.005; D -0.179; G -0.146; R -0.091; C -0.114; H -0.17; K -0.01; Q -0.105; E -0.103; N -0.029; V -0.016
I18: W -0.562; Y -0.494
E24: R -0.03; N -0.106; Y 0.05; W 0.666; P -0.797; S -0.076; M -0.059; I -0.251; G -0.215; H -0.019; D -0.104; A -0.112; K -0.078; V -0.092; F -0.03; L -0.199; T -0.071
N27: D -0.029; I -0.109; G -0.137; H -0.094; E -0.006; T 0.007; R 0.017; L -0.076; Q -0.018; A -0.095; F -0.081; K 0.013; P -0.476; S -0.054; M -0.085; W -0.209
G22: P -0.572; T -0.192; C -0.204; S -0.148; K -0.12; V -0.312; E -0.071; A -0.126; M -0.115; N -0.167; Y -0.226; Q -0.026; D -0.027; H -0.234; R -0.032; L -0.234; I -0.34; W -0.308
Q25: M -0.127; L -0.039; A -0.004; E 0.004; T 0.022; V -0.019; S -0.067; I -0.015; W -0.17; K -0.158; Y -0.06; F -0.181; G 0.005; H -0.256; C -0.099; P -0.264
K28: R 0.002; N -0.256; C -0.597; D -0.431; I -0.269; H -0.162; M -0.085; A -0.144; L -0.239; G -0.507; E -0.243; F -0.4; P -0.751
G20: F -1.01; L -1.07; K -0.401; V -1.38; D -0.086; I -1.09; H -0.576; M -0.805; T -0.59; Q -0.4; W -0.96; C -1.28; R -0.428; N -0.389; P -0.576; S -0.298
